{
  "source": "paper PMC7513463",
  "about": "(Nature, 2020)",
  "binders": {"B1": {"name": "PA0622 sheath protein of pyocin R2 (natural protein, Pseudomonas aeruginosa PAO1, UniProt G3XD39 1-386, looked up)", "chain": "MSFFHGVTVTNVDIGARTIALPASSVIGLCDVFTPGAQASAKPNVPVLLTSKKDAAAAFGIGSSIYLACEAIYNRAQAVIVAVGVETAETPEAQASAVIGGISAAGERTGLQALLDGKSRFNAQPRLLVAPGHSAQQAVATAMDGLAEKLRAIAILDGPNSTDEAAVAYAKNFGSKRLFMVDPGVQVWDSATNAARNAPASAYAAGLFAWTDAEYGFWSSPSNKEIKGVTGTSRPVEFLDGDETCRANLLNNANIATIIRDDGYRLWGNRTLSSDSKWAFVTRVRTMDLVMDAILAGHKWAVDRGITKTYVKDVTEGLRAFMRDLKNQGAVINFEVYADPDLNSASQLAQGKVYWNIRFTDVPPAENPNFRVEVTDQWLTEVLDVA"}, "B2": {"name": "PA0617 sheath initiator protein of pyocin R2 (natural protein, Pseudomonas aeruginosa PAO1, UniProt G3XD42 1-108, looked up)", "chain": "MIGMDRRSGLPLSGLAHLKQSVEDILTTPLGSRRMRPEYGSKLRRMVDMPVSEGWKSAVQAEVARSLGRWEPRIGLSAVRVVAVVDGRVDLLLSGVFEGENINMEVSA"}, "B3": {"name": "PA0618 (Tri1) triplex protein of pyocin R2 (natural protein, Pseudomonas aeruginosa PAO1, UniProt G3XCX5 1-295, looked up)", "chain": "MIIDLSQLPEPEVIENLDFETIYQELLGDFREAMAGEWTAEVESDPVLKLLQLAAYRELLLRARINDAARAVMLAYASGADLDQIGAGFNVQRLLIRPAQPEAVPPVEAQYESDKSLRNRIQLAFEQLSVAGPRNAYIAHALGADGRVADASATSPAPCEVLISVLGVEGNGQAPEAVLQAVRLALNAEDVRPVADRVTVRSAGIVPYQVKAQLYLFPGPEAELIRAAAEASLRDYISAQRRLGRDIRRSALFATLHVEGVQRVELQEPAADVVLDETQAAYCTGYAITLGGVDE"}, "B4": {"name": "PA0616 central spike protein of pyocin R2 (in the native particle) (natural protein)", "chain": "MSYVSAEHDRMLAAMILPCVVVAVDLAAARVRVRSGDWTSGWLRWHSLAAGKVRHWRAPSIGEQGVLLSPSGGVSMGTFIPGLYGDAGTAPDNSASSETWRFDDGASLSYDWAAHRYRVELPSGTVEVRVGASEVRVSDGAVSLKAPKISLEGPVEIAGTLTVSGDILGGGSIIDTAGNSNHHTH"}, "B5": {"name": "PA0616 central spike protein, full length, recombinant (natural protein)", "chain": "B4 chain"}, "B6": {"name": "PA0626 ripcord protein of pyocin R2 (natural protein, Pseudomonas aeruginosa PAO1, UniProt G3XD65 1-290, looked up)", "chain": "MAYLEQLQAGLRYLGRAGESGRKSLDKVVAPVNGAISEIRGAAAELENLPGVSPEMAARLQRAMRGIGQAQGKVNRVVSTYDRASRALLGIDERLDALKVQVNSAAQAVGKVAGDISPTLAGVLPSWLLAPSATPPSEAAASLPHLLVLQPLTANAQPFYFNLNTAAFDALQRNSAYNWSGQVRLGRRPALQSVGMGEESILLKGAVFPLRRQVGNQEKVVGLEQLEALRRLAERREPLILSSGYGEVQMGLWCLVRISENQSALLGNGAPRKQTFDLEFKRYGDDLPNR"}, "B7": {"name": "PA0615 collar protein of pyocin R2 (natural protein, Pseudomonas aeruginosa PAO1, UniProt G3XD82 1-171, looked up)", "chain": "MPEQAVTLEALYAAIEQVLRERLPEAQLIGFWPGVPENTPAVSLEIAELLPERDPGTGESALLCRLQARIMVPPGADRQAVSIACGIVRTLREQTWNLSLQPARFVRSAVDGSREELKSLRVWLVEWTQSLRLGDPEWAWEDQPPGSLMLGFDPQTGPGHEPDYFAPEALA"}, "B8": {"name": "PA0623 tube protein of pyocin R2 (natural protein, Pseudomonas aeruginosa PAO1, UniProt Q9I5S9 1-167, looked up)", "chain": "MIPQTLTNTNLFIDGVSFAGDVPSLTLPKLAVKTEQYRAGGMDAPVSIDMGLEAMEAKFSTNGARREALNFFGLADQSAFNGVFRGSFKGQKGASVPVVATLRGLLKEVDPGDWKAGEKAEFKYAVAVSYYKLEVDGREVYEIDPVNGVRAINGVDQLAGMRNDLGL"}, "B9": {"name": "PA0628 hub protein of pyocin R2 (natural protein, Pseudomonas aeruginosa PAO1, UniProt G3XCU8 1-329, looked up)", "chain": "MQPSFRIVADGTDVTQRLNDRLLKLTLLDKPGMESDSLTLRIDDRDGQVALPRRGAVLEVHLGYAGEPLMRMGRFTVDTLQWAGPPDCLTVTAKAGDMRGSGKTIRSGGWEGTTLAQVCRDVGARNGWRVECPLQVAIARVDQVNESDYHFVTRLARQYDCTAKLAEGMLMVLPRQSGQSATGRRIEPLVLGRADVGSFDVTFDDRSLMRTVKTRYQLPGSGEVKSVELKNPKAPATAMGEHVDRHLYTSRGEAEQAAKARLASFSRSSASVRLELPGRGDLFAERSLLLQGFKAGIDGEFLIDSVEHTYSSSGWTTVVQCNGGRGGKG"}, "B10": {"name": "PA0619 (Tri2) triplex protein of pyocin R2 (natural protein, Pseudomonas aeruginosa PAO1, UniProt G3XD92 1-177, looked up)", "chain": "MSSRLLPPNRSSLERSLGDVLPAELPVPLRELHDPARCEAALLPYLAWTRSVDRWDPDWSDEAKRNAVATSFVLHQRKGTLTALRQVVEPIGALSEVTEWWQRSPTGVPGTFEITVDVSDRGIDEGTVLELERLLDDVRPVSRHLTRLDLRITPVIRSRHGLAVTDGDTLEIFPWKQ"}},
  "key": {"cryo-EM structure [1]": {"target": "the molecule itself", "test": "cryo-EM structure"}, "[2]": {"target": "B1", "test": "cryo-EM structure"}, "[3]": {"target": "B10", "test": "cryo-EM structure"}, "cryo-EM structure [4]": {"target": "the molecule itself", "test": "cryo-EM structure", "remark": "listed apart in the source"}, "crystal structure": {"target": "the molecule itself", "test": "crystal structure"}, "[5]": {"target": "B9", "test": "cryo-EM structure"}, "[6]": {"target": "B1", "test": "cryo-EM structure", "remark": "listed apart in the source"}, "[7]": {"target": "B3", "test": "cryo-EM structure"}},
  "note": "Like-named read-outs stand apart in the source and are kept apart here.",
  "data": [
    {"binder": "B1", "values": [
      {"measurement": "binding result", "setting": "cryo-EM structure [1]", "value": "binds"}
    ]},
    {"binder": "B2", "values": [
      {"measurement": "binding result", "setting": "[2]", "value": "binds"}
    ]},
    {"binder": "B3", "values": [
      {"measurement": "stoichiometry N", "setting": "[3]", "value": 2, "unit": "PA0618 per PA0619"},
      {"measurement": "stoichiometry N", "setting": "cryo-EM structure [4]", "value": 2}
    ]},
    {"binder": "B4", "values": [
      {"measurement": "stoichiometry N", "setting": "cryo-EM structure [4]", "value": 3}
    ]},
    {"binder": "B5", "values": [
      {"measurement": "stoichiometry N", "setting": "crystal structure", "value": 3}
    ]},
    {"binder": "B6", "values": [
      {"measurement": "stoichiometry N", "setting": "cryo-EM structure [4]", "value": 6},
      {"measurement": "binding result", "setting": "[5]", "value": "binds"}
    ]},
    {"binder": "B7", "values": [
      {"measurement": "stoichiometry N", "setting": "cryo-EM structure [4]", "value": 6},
      {"measurement": "binding result", "setting": "[6]", "value": "binds"}
    ]},
    {"binder": "B8", "values": [
      {"measurement": "stoichiometry N", "setting": "cryo-EM structure [4]", "value": 6}
    ]},
    {"binder": "B9", "values": [
      {"measurement": "stoichiometry N", "setting": "cryo-EM structure [4]", "value": 3}
    ]},
    {"binder": "B10", "values": [
      {"measurement": "binding result", "setting": "[7]", "value": "binds"}
    ]}
  ]
}
